Target: T1, ALK2-Fc, Q04771
T1 chain: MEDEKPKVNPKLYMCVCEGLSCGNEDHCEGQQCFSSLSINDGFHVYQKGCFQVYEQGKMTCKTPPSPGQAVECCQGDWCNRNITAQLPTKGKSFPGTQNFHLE
Assay: SPR
Conditions: ligand; chains chain; remark: other sources report otherwise

Kd: 83 nM
B1: BMP9 GF-domain (bone morphogenetic protein 9 growth factor domain), Q9UK05 320-429 (protein)
chain: SAGAGSHCQKTSLRVNFEDIGWDSWIIAPKEYEAYECKGGCFFPLADDVTPTKHAIVQTLVHLKFPTKVGKACCVPTKLSPISVLYKDDMGVPTLKYHYEGMSVAECGCR
